# Source: US20200199204A1 (UNITED STATES OF AMERICA AS REPRESENTED BY THE SECRETARY …, published 2020)
# Assays:
# Test in all cases: cell-based or functional assay
# [1] = target: HIV-1 Env of strain CNE3 (clade AE), on Env-pseudovirus (HIV-1 strain CNE3)
# [2] = target: HIV-1 Env of strain TH976.17 (clade AE), on Env-pseudovirus (HIV-1 strain TH976.17)
# [3] = target: HIV-1 Env of CAP256.PI (HIV-1)
# [4] = target: HIV-1 Env of CAP256.SU (HIV-1)
# [5] = target: HIV-1 Env of 96ZM651.02 (HIV-1)
# [6] = target: HIV-1 Env of CAP210.E8 (HIV-1)
# [7] = target: HIV-1 Env of CAP244.D3 (HIV-1)
# [8] = target: HIV-1 Env of CAP45.G3 (HIV-1)
# [9] = target: HIV-1 Env of DU156.12 (HIV-1)
# [10] = target: HIV-1 Env of DU172.17 (HIV-1)
# [11] = target: HIV-1 Env of DU422.01 (HIV-1)
# [12] = target: HIV-1 Env of ZM109.4 (HIV-1)
# [13] = target: HIV-1 Env of ZM135.10a (HIV-1)
# [14] = target: HIV-1 Env of ZM197.7 (HIV-1)
# [15] = target: HIV-1 Env of ZM214.15 (HIV-1)
# [16] = target: HIV-1 Env of ZM233.6 (HIV-1)
# [17] = target: HIV-1 Env of ZM249.1 (HIV-1)
# [18] = target: HIV-1 Env of ZM53.12 (HIV-1)
# [19] = target: HIV-1 Env of 0260.v5.c36 (HIV-1)
# [20] = target: HIV-1 Env of BG505.w6m (HIV-1)
# [21] = target: HIV-1 Env of KER2008.12 (HIV-1)
# [22] = target: HIV-1 Env of KER2018.11 (HIV-1)
# [23] = target: HIV-1 Env of MB201 (HIV-1)
# [24] = target: HIV-1 Env of MB539.2B7 (HIV-1)
# [25] = target: HIV-1 Env of Q168.a2 (HIV-1)
# [26] = target: HIV-1 Env of Q23.17 (HIV-1)
# [27] = target: HIV-1 Env of Q259.d2.17 (HIV-1)
# [28] = target: HIV-1 Env of Q461.e2 (HIV-1)
# [29] = target: HIV-1 Env of Q769.d22 (HIV-1)
# [30] = target: HIV-1 Env of Q842.d12 (HIV-1)
# [31] = target: HIV-1 Env of RW020.2 (HIV-1)
# [32] = target: HIV-1 Env of UG037.8 (HIV-1)
# [33] = target: HIV-1 Env of 6535.3 (HIV-1)
# [34] = target: HIV-1 Env of AC10.29 (HIV-1)
# [35] = target: HIV-1 Env of CAAN.A2 (HIV-1)
# [36] = target: HIV-1 Env of PVO.04 (HIV-1)
# [37] = target: HIV-1 Env of QH0692.42 (HIV-1)
# [38] = target: HIV-1 Env of REJO.67 (HIV-1)
# [39] = target: HIV-1 Env of RHPA.7 (HIV-1)
# [40] = target: HIV-1 Env of SC422.8 (HIV-1)
# [41] = target: HIV-1 Env of THRO.18 (HIV-1)
# [42] = target: HIV-1 Env of TRJO.58 (HIV-1)
# [43] = target: HIV-1 Env of TRO.11 (HIV-1)
# [44] = target: HIV-1 Env of WITO.33 (HIV-1)
# [45] = target: HIV-1 Env of 3016.V5.c36 (HIV-1)
# [46] = target: HIV-1 Env of 6405.v4.c34 (HIV-1)
# [47] = target: HIV-1 Env of C1080.c3 (HIV-1)
# [48] = target: HIV-1 Env of CM244.ec1 (HIV-1)
# [49] = target: HIV-1 Env of CNE3 (HIV-1)
# [50] = target: HIV-1 Env of TH976.17 (HIV-1)
# [51] = target: SIV Env of SIVmac251.30 (nonHIV control), on Env-pseudovirus (SIVmac251.30)
binder,measurement,setting,value
"CAP256-VRC26.11 (antibody, V domains shown) VH: EVQLVESGGGVVPPGKSLTLSCVASRFTFSAFGMHWVRQAPGKGLEWVASISFAGIKKYYADSVKGRFSISRDNSNTLFLQMNGLRGEDTGLYHCVKDMRELECEEWASDYYDFGKPQPCLDRRGVSGISAWWGPGTMVTVSS VL: QSVLTQPPSVSAAPGQNVTISCSGPPSHIEKNDVSWYQRLPGMAPKMVIYESKRRPLGIPVRFSASRSGSSATLVITGLQTADEADYYCGTWDGRMNFGTGTTVSVLG","IC50, neutralization of Env-pseudovirus (TZM-bl assay)",[1],> 50 µg/mL
same,"IC50, neutralization of Env-pseudovirus (TZM-bl assay)",[2],> 50 µg/mL
"CAP256-VRC26.26 (antibody, V domains shown) VH: EVQLVESGGGIVQPGRSLTLSCVASQFAFSHYGMHWVRQAPGKGLEWVASISRDETKKYHGDSVWDRFSISRDNSKNTLFLQMNSLRAEDTALYFCVRDQREDECEEWWSDYYDFGKELPCRKFRGLGLAGIFDVWGHGTMVIVSS VL: QSALTQPPSVSAAPGQKVSISCSGNNSNIGNNFISWFQQFPGTAPKPLIYETYKRHSGIPDRFSGSKSGTSATLAITGLQTGDEADYYCATWGVRQGVGALFGTGTKVTVLG","IC50 (neutralization, TZM-bl)",[3],> 50 µg/mL
same,"IC50 (neutralization, TZM-bl)",[4],3 ng/mL
same,"IC50 (neutralization, TZM-bl)",[5],0.111 µg/mL
same,"IC50 (neutralization, TZM-bl)",[6],7 ng/mL
same,"IC50 (neutralization, TZM-bl)",[7],36.6 µg/mL
same,"IC50 (neutralization, TZM-bl)",[8],0.08 µg/mL
same,"IC50 (neutralization, TZM-bl)",[9],0.013 µg/mL
same,"IC50 (neutralization, TZM-bl)",[10],0.5 µg/mL
same,"IC50 (neutralization, TZM-bl)",[11],0.08 µg/mL
same,"IC50 (neutralization, TZM-bl)",[12],0.025 µg/mL
same,"IC50 (neutralization, TZM-bl)",[13],> 50 µg/mL
same,"IC50 (neutralization, TZM-bl)",[14],0.011 µg/mL
same,"IC50 (neutralization, TZM-bl)",[15],14.1 µg/mL
same,"IC50 (neutralization, TZM-bl)",[16],1 ng/mL
same,"IC50 (neutralization, TZM-bl)",[17],0.023 µg/mL
same,"IC50 (neutralization, TZM-bl)",[18],1 ng/mL
same,"IC50 (neutralization, TZM-bl)",[19],0.78 µg/mL
same,"IC50 (neutralization, TZM-bl)",[20],0.066 µg/mL
same,"IC50 (neutralization, TZM-bl)",[21],> 50 µg/mL
same,"IC50 (neutralization, TZM-bl)",[22],1 ng/mL
same,"IC50 (neutralization, TZM-bl)",[23],> 50 µg/mL
same,"IC50 (neutralization, TZM-bl)",[24],0.634 µg/mL
same,"IC50 (neutralization, TZM-bl)",[25],5 ng/mL
same,"IC50 (neutralization, TZM-bl)",[26],> 50 µg/mL
same,"IC50 (neutralization, TZM-bl)",[27],0.011 µg/mL
same,"IC50 (neutralization, TZM-bl)",[28],0.024 µg/mL
same,"IC50 (neutralization, TZM-bl)",[29],> 50 µg/mL
same,"IC50 (neutralization, TZM-bl)",[30],17.1 µg/mL
same,"IC50 (neutralization, TZM-bl)",[31],> 50 µg/mL
same,"IC50 (neutralization, TZM-bl)",[32],> 50 µg/mL
same,"IC50 (neutralization, TZM-bl)",[33],> 50 µg/mL
same,"IC50 (neutralization, TZM-bl)",[34],> 50 µg/mL
same,"IC50 (neutralization, TZM-bl)",[35],> 50 µg/mL
same,"IC50 (neutralization, TZM-bl)",[36],0.562 µg/mL
same,"IC50 (neutralization, TZM-bl)",[37],> 50 µg/mL
same,"IC50 (neutralization, TZM-bl)",[38],> 50 µg/mL
same,"IC50 (neutralization, TZM-bl)",[39],> 50 µg/mL
same,"IC50 (neutralization, TZM-bl)",[40],1.74 µg/mL
same,"IC50 (neutralization, TZM-bl)",[41],0.667 µg/mL
same,"IC50 (neutralization, TZM-bl)",[42],> 50 µg/mL
same,"IC50 (neutralization, TZM-bl)",[43],> 50 µg/mL
same,"IC50 (neutralization, TZM-bl)",[44],> 50 µg/mL
same,"IC50 (neutralization, TZM-bl)",[45],0.022 µg/mL
same,"IC50 (neutralization, TZM-bl)",[46],> 50 µg/mL
same,"IC50 (neutralization, TZM-bl)",[47],0.016 µg/mL
same,"IC50 (neutralization, TZM-bl)",[48],0.047 µg/mL
same,"IC50 (neutralization, TZM-bl)",[49],> 50 µg/mL
same,"IC50 (neutralization, TZM-bl)",[50],> 50 µg/mL
"CAP256-VRC26.10 (antibody, V domains shown) VH: QAILVESGGGVVQPGRSLRLSCAASQFTFSGHGLHWVRQAPGKGLEWVASISFAGTKMDYADSVKGRFAISRDNSKNTLYLQMNSLRVEDTALYYCAKDMREYECEYWTSDYYDFGRPQPCIDRRGVVGIFDMWGQGTMVTVST VL: QSVLTQPPSVSAAPGQKVTISCSGSSSNIGDNYVSWYQHLPGTAPKLLIYENTRRPSGIPDRFSGSKSGTSATLAITGLQTGDEADYYCGTWDVRPNRGAVFGTGTKVTVLG","IC50, neutralization of Env-pseudovirus (TZM-bl assay)",[1],> 50 µg/mL
same,"IC50, neutralization of Env-pseudovirus (TZM-bl assay)",[2],> 50 µg/mL
same,"IC50, neutralization of Env-pseudovirus (TZM-bl assay)",[51],> 50 µg/mL
"CAP256-VRC26.12 (antibody, V domains shown) VH: EVQLVQSGGGVVQPGRSLRLSCAAPYFEFGRYGFHWVRQAPGKGLEWVASISFAGRDYYHSPSVWGRFTISRDNSKNTLYLQMNSLRIEDTALYFCARDLRESECEEWESDYYDFGKKGPCVKPRGVAGGLDLWGQGTMVIVSS VL: QSVLTQPPSVSTAPGQTVTVSCSGGTSNTGNNFVSWYQHLPGTAPKLLIYENNKRPLGVPDRFSGAKSGTSATLAITGLQTGDEGDYYCATWSGSLNIGTGTKVSVLG","IC50, neutralization of Env-pseudovirus (TZM-bl assay)",[1],> 50 µg/mL
same,"IC50, neutralization of Env-pseudovirus (TZM-bl assay)",[2],> 50 µg/mL
"CAP256-VRC26.08 (antibody, V domains shown) VH: EVQLVESGGGVVQPGRSLTLSCAASQFTFSNYGMHWVRQAPGKGLEWVASVSNDGTKKYHGDSVWGRFTISRDNSKNTLFLQMSSLRAEDTAVYFCVRDQREDECEEWWSDYYDFGRELPCRKFRGLGLAGIFDIWGHGTMVTVSS VL: QSALTQPPSVSAAPGQKVTISCSGNSSNIGNNFVSWYQQVPGTAPKLLLYETYRRPSGIPDRFSGSKSGTSATLAITGLQTGDEADYYCTVWGVRKGVGAVFGTGTKVTVLG","IC50, neutralization of Env-pseudovirus (TZM-bl assay)",[1],> 50 µg/mL
same,"IC50, neutralization of Env-pseudovirus (TZM-bl assay)",[2],> 50 µg/mL
same,"IC50, neutralization of Env-pseudovirus (TZM-bl assay)",[51],> 50 µg/mL
"CAP256-VRC26.09 (antibody, V domains shown) VH: EVQLVESGGGVVQPGRSLTLSCAASQFNFANYGMHWVRQAPGKGLEWVASISNDGTKKYHEESVWGRFTISKDNSKSTLFLQMNSLRIEDTALYFCVKDQREDECEEWWSDYYDFGRELPCRKSRGLGLAGIFDMWGHGTMVTVSS VL: QSALTQPPSVSAAPGQKVTISCSGNSSNIGNNFVSWYQQLPGTAPKLLIYENNRRPSGIPDRFSGSKSGTSATLAISGLQTGDEADYWCAVWGVRRGAGAVFGAGTKVTVLG","IC50, neutralization of Env-pseudovirus (TZM-bl assay)",[1],> 50 µg/mL
same,"IC50, neutralization of Env-pseudovirus (TZM-bl assay)",[2],> 50 µg/mL
same,"IC50, neutralization of Env-pseudovirus (TZM-bl assay)",[51],> 50 µg/mL
